Experimental data published in patent US20190022222A1, “NEUTRON CAPTURE THERAPY SYSTEM FOR ELIMINATING AMYLOID Beta-PROTEIN DEPOSITION PLAQUE” (NEUBORON MEDTECH LTD., priority 2016, published 2019).

How the values were obtained:
[1] = target: amyloid β-protein (Homo sapiens, UniProt P05067); test: equilibrium dissociation constant KD with amyloid β-protein solution; type: binding; conditions: amyloid β-protein solution 10 μM, compound 0.1 to 10 μM, room temperature 20 min
Experimental: In the examples of the present disclosure, the affinity of the ^10B-containing compound and the amyloid β-protein deposition plaque is evaluated by using the equilibrium dissociation constant KD value. KD can indicate the degree of dissociation of the two substances in the equilibrium state.
The amyloid β-protein solution was prepared at a concentration of 10 μM and mixed with compound I or compound II at different concentrations (concentrations ranging from 0.1 to 10 μM). […] In addition, a known compound capable of specifically binding to amyloid β-protein was used as a control and mixed with a amyloid β-protein solution at a concentration of 10 μM and allowed to stand at room temperature for 20 min. The equilibrium dissociation constant KD was also measured and calculated.

[2] = system: Aβ; conditions: phase III clinical trial, latest results; cited from earlier work
Sequence of Aβ (P05067 672-711 limits assumed): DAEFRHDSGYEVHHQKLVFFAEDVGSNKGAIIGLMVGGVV

Sequence of amyloid β-protein (P05067 672-713 limits assumed): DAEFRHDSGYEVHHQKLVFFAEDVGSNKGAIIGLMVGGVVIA

| Molecule | Kd [1] [µM] | Aβ level in cerebrospinal fluid [2] | tau protein level in cerebrospinal fluid [2] |
| --- | --- | --- | --- |
| Cc1ccc(C(=O)/C=C/c2ccc(N)cc2)o1 [control] | 1.59 |  |  |
| Gantenerumab: monoclonal antibody that binds to the N-terminal epitope of Aβ (antibody, chains of the INN, looked up, V domains shown) VH: QVELVESGGGLVQPGGSLRLSCAASGFTFSSYAMSWVRQAPGKGLEWVSAINASGTRTYYADSVKGRFTISRDNSKNTLYLQMNSLRAEDTAVYYCARGKGNTHKPYGYVRYFDVWGQGTLVTVSS VL: DIVLTQSPATLSLSPGERATLSCRASQSVSSSYLAWYQQKPGQAPRLLIYGASSRATGVPARFSGSGSGTDFTLTISSLEPEDFATYYCLQIYNMPITFGQGTKVEIK |  | does not significantly reduce | significantly reduces |
